The values below come from patent publication US8815803B2, “Method for increasing body height comprising systemic administration of CNP-53” (priority 2004, dated 2014).

Format in all cases: in vivo
Data set [1] in a line: CNP expression in CNP transgenic mouse: CNP-22 EIA, liver. The protocol: (§1) A CNP-22 EIA measuring kit (PHOENIX PHARMACEUTICALS INC.) was used for the determination of a CNP level.
(§2) Three each of 7-week old male and female CNP transgenic mice, as well as 3 each of male and female normal litter of mice, were euthanized by exsanguination from the postcava under ether anesthesia.
The liver was homogenized in a Waring blender (Physcotron), and after centrifugation (at 2,000 rpm for 5 minutes), the supernatant was used as a sample for the determination of CNP-22 levels.

Data set [2] can be described thus: CNP expression in CNP transgenic mouse: CNP-22 EIA, blood plasma. How it is done:
as §1, §2
One mg of ethylenediaminetetraacetate-4Na (Junsei Chemical Co., Ltd., Japan) and 2 trypsin-inhibition units of aprotinin (Sigma) were added to the drawn blood and agitated to separate blood plasma, which was used as a sample for the determination of CNP-22 levels.

The test system of a further data set is mice. The data set is described as follows: Growth curve of CNP transgenic mouse (naso-anal length). The protocol:
The naso-anal lengths (in cm) of female and male CNP transgenic mice, as well as those of female and male normal littermates, were measured on time over a period of 2 to 9 weeks (FIG. 4).

In data set [3] the test system is growth cartilage of femora. The data set is described as follows: Histological analysis of the growth cartilage of CNP transgenic mouse. As to conditions: 9-week old female CNP transgenic mice, patellar surface femur. An excerpt:
For the purpose of analyzing the thickness of the growth cartilage histologically, 5 each of 9-week old female CNP transgenic mice and female normal litter of mice were euthanized by exsanguination from the postcava under ether anesthesia, and the thigh bone was fixed in 20% formalin for a week. After soaking in a 20% aqueous solution of EDTA-4Na (pH 7.4) (Junsei Chemical Co., Ltd., Japan) for decalcification, the patellar surface femur was subjected to a midline sagittal section and embedded in paraffin by conventional method to prepare a paraffin block. A 4 μm-thick section was further sectioned with a microtome to prepare paraffin sections, which were stained with hematoxylin and eosin. For the thickness of the growth cartilage, one microscopic field observed using an objective lens (×10) was incorporated into an image analysis software (IPAP, Sumika Technoservice, Japan), and each thickness of the resting layer, proliferating layer and hypertrophic layer was measured at 5 points in the microscopic field using the same software, and the calculated mean value thereof was taken as the thickness of each layer of the individual. The total of the three layers was regarded as the thickness of the growth cartilage of the individual. […]

[4] abbreviates: 7-week old CNP transgenic mice, individual animal, CNP-22 EIA.
The mark [5] stands for this setting: CNP transgenic mouse vs wild type, means compared.

Where “and” joins values, the source holds several entries; their conditions need not be identical. Equal values may be shown once. Entries after “also recorded” stand apart in the source; their conditions may differ.

With “CNP: C-type natriuretic peptide, a GC-B activator, overexpressed from murine CNP cDNA transgene in mice; measured with CNP-22 EIA kit”, the “CNP level, Liver” value in data set [1] (setting [4]) was 370.0 ng/g tissue and 206.7 ng/g tissue and 293.3 ng/g tissue. Moreover, the “CNP level, Liver, mean ± SD” value in data set [1] (7-week old CNP transgenic mice, mean ± SD of No. 1-3, p < 0.01 vs wild type) came out at 290 ± 81.7 ng/g tissue. Also, the “CNP level in the liver, higher than the wild type” value in data set [1] (setting [5]) is recorded as “about 10 fold”. For the same substance, in data set [2] (setting [4]), the “CNP level, Plasma” value is 11.1 ng/mL and 2.6 ng/mL and 10.3 ng/mL. Moreover, in data set [2] (7-week old CNP transgenic mice, mean ± SD of No. 1-3), the “CNP level, Plasma, mean ± SD” value was 8.0 ± 4.7 ng/mL. The “CNP level in blood plasma, higher than the wild type” value in data set [2] (setting [5]) is recorded as “about 24 fold”. The “naso-anal length vs normal litter (WT)” value in the data set on mice (female CNP transgenic mice, at 2 weeks old and thereafter) is on record as “significantly greater”; in the data set on mice (male CNP transgenic mice, at 4 weeks old and thereafter) it was “significantly greater”. The “naso-anal length vs normal littermates” value in the data set with mice (female and male CNP transgenic mice, over a period of 2 to 9 weeks) is recorded as “greater than those of the normal littermates; also recorded: greater than those of the normal litter”. In data set [3], the “thickness of resting layer, proliferating layer, hypertrophic layer and total thickness of growth cartilage vs wild type” value was “greater with statistical significance; also recorded: significantly greater”.
